Results reported in IntAct's records for PubMed 32439656.

B1: ER membrane protein complex subunit 2 (Homo sapiens), Q15006 (parent)
chain: MAKVSELYDVTWEEMRDKMRKWREENSRNSEQIVEVGEELINEYASKLGDDIWIIYEQVMIAALDYGRDDLALFCLQELRRQFPGSHRVKRLTGMRFEAMERYDDAIQLYDRILQEDPTNTAARKRKIAIRKAQGKNVEAIRELNEYLEQFVGDQEAWHELAELYINEHDYAKAAFCLEELMMTNPHNHLYCQQYAEVKYTQGGLENLELSRKYFAQALKLNNRNMRALFGLYMSASHIASNPKASAKTKKDNMKYASWAASQINRAYQFAGRSKKETKYSLKAVEDMLETLQITQS
partner: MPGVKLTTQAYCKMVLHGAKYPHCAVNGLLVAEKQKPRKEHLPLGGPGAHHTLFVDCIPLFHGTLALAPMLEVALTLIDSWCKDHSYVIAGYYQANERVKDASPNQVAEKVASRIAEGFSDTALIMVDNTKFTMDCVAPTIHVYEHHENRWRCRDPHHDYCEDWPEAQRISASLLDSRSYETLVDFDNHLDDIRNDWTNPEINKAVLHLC
B2: ER membrane protein complex subunit 2 (Homo sapiens), Q15006 (parent)
chain: B1 chain
partner: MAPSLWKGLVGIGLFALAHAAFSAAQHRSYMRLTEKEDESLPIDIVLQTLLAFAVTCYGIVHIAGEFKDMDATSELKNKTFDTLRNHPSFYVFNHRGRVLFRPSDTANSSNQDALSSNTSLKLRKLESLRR
B3: ER membrane protein complex subunit 2 (Homo sapiens), Q15006 (parent)
chain: B1 chain
partner: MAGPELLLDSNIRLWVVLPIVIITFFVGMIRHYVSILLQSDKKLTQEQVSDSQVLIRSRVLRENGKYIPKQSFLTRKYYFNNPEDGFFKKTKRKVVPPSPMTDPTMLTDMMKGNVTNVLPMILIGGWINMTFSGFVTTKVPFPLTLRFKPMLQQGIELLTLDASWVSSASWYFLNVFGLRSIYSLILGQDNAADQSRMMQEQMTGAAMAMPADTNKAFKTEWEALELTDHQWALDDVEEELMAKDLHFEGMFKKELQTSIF
B4: ER membrane protein complex subunit 6 (Homo sapiens), Q9BV81 (parent)
chain: MAAVVAKREGPPFISEAAVRGNAAVLDYCRTSVSALSGATAGILGLTGLYGFIFYLLASVLLSLLLILKAGRRWNKYFKSRRPLFTGGLIGGLFTYVLFWTFLYGMVHVY
partner: B2 partner

Variants of: B1
Conditions: with emc8_human EMC8, O43402

Variant | effect of a mutation on the interaction
R28A | with no effect
Y171A | with no effect
E156A | with no effect
E180A | with no effect
E160A | with no effect
Y200A | disrupting interaction strength

The remaining lines, values ahead:

effect of a mutation on the interaction | Variant
disrupting interaction strength | R227A
with no effect | W259A

Variants of: B2
Conditions: with emc5_human MMGT1, Q8N4V1

Variant | effect of a mutation on the interaction
Y171A | with no effect
E156A | disrupting interaction strength
E180A | with no effect
R28A | disrupting interaction strength
E160A | disrupting interaction strength

Other lines, results leading:

effect of a mutation on the interaction | Variant
with no effect | W259A
disrupting interaction strength | Y200A
disrupting interaction strength | R227A

Variants of: B3
Conditions: with emc3_human EMC3, Q9P0I2

Variant | effect of a mutation on the interaction
R28A | with no effect
E180A | disrupting interaction strength
E156A | with no effect
E160A | with no effect
Y171A | with no effect

The next lines start with the values.

effect of a mutation on the interaction | Variant
disrupting interaction strength | W259A
with no effect | Y200A
disrupting interaction strength | R227A

Variants of: B4
Conditions: with emc5_human MMGT1, Q8N4V1

effect of a mutation on the interaction | Variant
with no effect | G45Y;G48A
with no effect | V33K;L36K
